Measurements as given in the DeepSol protein solubility set.

assay: soluble on expression in E. coli; label from the status in PepcDB or PDB records

Sequence | soluble on expression in E. coli
MQDPRHPQGLPLSPGLPKRQRQDRTIYNWKQQEVLENHFKEEQYPDYDTRQELAEMLNLREYQVQVWFKNRRAKRSREQWFQKQLQQLQKHPQQQHPQQQHPQQQLQQQQPQQQPQQQQPQQQQLHQQPQ | soluble
MGSDKIHHHHHHMSVLTVTGLSQRFLDKVLYQDASFQVNIEDHLGVIGQNGVGKSTLIKILTGAQTPDAGKIVWQKHLHVGYLDQYANLVPGQTVIEFLRTAFSDLYRKEAKMNQIYADYANHPDDDLLAKAGELQQELEAGDFYDLETTIQTVAEGLGITAMGMDHPVEALSGGQRSKLILAKLLLEKPDMLLLDEPTNYLDVSHIAWLTDWLQNFEGAFIVISHDFDFLENVTNAVLDIEFGQITKYTGTLKQAMRQKEADHETYLKAFAKQQETIKKTEAFIRKFKAGTRATMAKSREKQLARMDKLTPPGTRSKAHLAFPYAPVNRQILVDVNDLVVGYDKPLLQPMNFSVAKDQIIAFEGFNGVGKSTLLKTLLGLLPAISGNVEIADNVVFGYYEQELHWDQPKQSPVQYLEQRFPALTQKTVRQVLSRTALTSEEANNPLTMLSGGEQAKVKLADLMLQTTNILVMDEPTNHLDDDTKNALREGLQQYPGAVLLVSHEAGFYDSSWVDTVVNVEQLQVKA | not soluble
MTIGQVNGRARIKSECGKDQKCMPLEDKWLLVPAFLKVRGLVKQHLVSFDHFVQEEIRSIMLSNQKITSDANPNFYLKYLDIRIGKPSSEEGLNMTHDKITPQECRLRDMTYSAPISVDIEYTRGNQRVFKKDLIIGRMPIMLRSSKCILRDLAEEELARVQECPYDPGGYFVVKGSEKVILIQEQLSKNRIMVGRNSSKELQCEVLSSTSERKSKTYVTMKKGKYSVRHNQLTDDVPVSIIFKAMGVESDFDIVSTIGHEEKYVSAFAQTLEESINAGVYTQQQALAYVTSKVKARKFTPFGSLPGTSVSVLTPPKEHEAVDFLSNSMITHIACPDGNFKMKAIYLGLMTRRLIQTELGENGLDDRDFYGNKRLELAGSLLSLLFEDVFKRFNSELKRIADNALMKTMAAPLDIVKHMRQDMITNTIVNAMSTGNWIIKRFRMERLGVTQVLSRLSYISALGMMTRINSTFEKTRKVSGPRSLQPSQWGMLCPSDTPEGEACGLVKNLALISHITTDSDEKPVLRLLLNSGVEDLHNVHFSHVNKPENTLIFLNGVLIGTAVDPERVVKAVRDLRRSGLLSEFVSVSRSLTNRSVFISSDGGRLCRPYIIVKNGTPMLTQAHVQELKEGKMIFEDFVDDGIVEYLDVNEMNDALIAVYGREIGPETTHLEIEPFTLLGVCAGLIPYPHHNQSPRNTYQCAMGKQAMGTIAYNQQKRIDSIMYLLCYPQRPLVKSKTIELTNFEKLPAGANGIIAVMSYSGYDIEDALVLNKASLDRGYGRCLVYKHVKGTAKKYPNQTFDRLLGPALDPNTRKPIFKHKNLDQEGIVFAGARIMPKQTIINKHMPVVSGESGPGASASANTIGIAGRQVDYKDVSITYKTPTPSYAERVLLTYNEDEAHLFKVLLRQTRRPELGDKFSSRHGQKGVCGLIAQQEDMPFNDLGMVPDMIMNPHGYPSRMTVGKLMELLSGKAGVVNGTYHYGTAFGGDQVKDVCEELAACGYNYMGKDMLTSGITGQPLSAYIYFGPIYYQKLKHMVLDKMHARARGPRAALTRQPTEGRSREGGLRLGEMERDCLIAYGASMLLIERLMVSSDEFKVDVCTGCGVIGSKGWCQKCRSSKSMANIKIPYACKLLFQELQSMNIVPRLDLARYTE | not soluble
MSLILASLVRYYRRLATETDETGNPKVPSYGFSEEKIGWILVLDKEGRLKTVVPNLTADKKPQPKLMSVPRPEKRTSGIKPNFLWDKTAYALGVEANKNKAEAKEKPFTPSEKTFEAFKQYHLDLLQNSEDEGLQALCRFLQNWQPAHFAAENLPAEMLDSNTAFSLEKPTALIHKREAAQTLWAGCLKSDEALESLCLISGDTAPIARLHPAIKGVFGGQSSGGSIISFNKEAFSSFGKEQGANAPVSEQSAFAYTTALNYLLRRENNHCLTIGDASTVFWAEADDIVDEGHHHHHH | not soluble
MSLELPSFIFQAQENLVERPWGGEWIALLKGFRQSGIGESWEFSAHTSRPSTVLVKGQQLSMIELFSKHRDELLGRAAEKFSKFPILVRLIDAASPTQVHVHPSDKAAESLGEAEGGVESAWLVFNKGKAYAGFKEDVKIEELEEKLKEEDFDFKTLLNTFETTPYDTFVIRPGIPHAGEGLRVLEVSSNSTLAYFFNENDWEKVKKVLNTKKVEEFEVKGKKGMAETENFGLEVVDVTGTAEIKTGGVMNILYAAEGYFILRGKETADLHRGYSCLVPASTDSFTVESERGKIVRIYLKVEGGSHHHHHH | soluble
RHNLIQRKRELDKQNELYRAIISASFAFVFQIDTEARFSFVSPSVEDFTGYRPDMLNGEPISILGSDEQAIKEARDYLARVLNDGEAIQVRGHPIETRSGNTVYGDIRAEPIYEPSVASSARTTENIIGAQVMVRDAS | not soluble
MQQINFYRQRVAINVLAKDIANAKAIYEAAEGHAVIGVLSAQFATVEEGVPEVKRWMAEVPSISVGLGAGDPAQYYKAAMIAAHTHPAHVNQTFTGSGFAAGALAATGGEQTHINALVSPTGTPGEVVISTGVSSSQGTPARVSCEAAVRMMQDMGAHAAKFFPMGGEKSLPELYALATTAARHGMTLIEPTGGISLDNFGIILQTCLEAGVPRVMPHVYSSIIDPQTGNTRPEDIIRLMEIVKALV | not soluble
MGSDKIHHHHHHMIDLRSDTVTKPTEEMRKAMAQAEVGDDVYGEDPTINELERLAAETFGKEAALFVPSGTMGNQVSIMAHTQRGDEVILEADSHIFWYEVGAMAVLSGVMPHPVPGKNGAMDPDDVRKAIRPRNIHFPRTSLIAIENTHNRSGGRVVPLENIKEICTIAKEHGINVHIDGARIFNASIASGVPVKEYAGYADSVMFCLSKGLCAPVGSVVVGDRDFIERARKARKMLGGGMRQAGVLAAAGIIALTKMVDRLKEDHENARFLALKLKEIGYSVNPEDVKTNMVILRTDNLKVNAHGFIEALRNSGVLANAVSDTEIRLVTHKDVSRNDIEEALNIFEKLFRKFS | soluble
MAHHHHHHMKDKLRAMGHPAMDAADREDSHAGCFSDSVGMQTYSLNTSLGAMHIMSRLNNEMSFVEDTASGSFGVVKKGVLDLDRQCYAVKQTKRVISGEGDLQQRLQEVYTLSACSHPNVLRYFDGWVEDRAVFVRTEWLSDGSVADFDRPFSEALLRSVIHQIASALHWLLCHHITHRDVKPENILARKMEDGTYTFKLADFGLARPLFRDRPNTGEEFRGTNDDDGDRRYLSPEAFAISEFSQQKGEADVYALGASCVELMGGDPSLVRNGCYTGNFHIYSAELQNLVQWMTRLDPQERPDAFMVALLTVDPALKSTRGFARRMAAIEGLRASVAELEKKVAETNATEKEEGGA | soluble
MDPFGKYIKAVSARAADKEILKKAQDGGIVSAAYIYGLESGLLDGVIIADKEDGFAAAPKVATTREEILNAAGTKYTVCPNLSVVKSAVREYGCDKLGFVGTPCQVRSIRKAIKYPVGYRHVPDKIALIMGIFCMENFPYNGMKAIVEEHCGIKMDDVVKTDIGKGKFWVYSKWGDVKTIPLKDTHPYEQGSCHVCMDYTAELADISTGSVGSPDGWSTIFVRTAKGEEYLNKMVEAGALETKEIDAVKPGLGLVEKLALTKKEKNGKEVEHRKEIGLPVPYLEHHHHHH | not soluble
MASVPENQAPKAIFTFSPEDPVTDENVVFNASNSIDEDGTIAYYVWDFGDGYEGTSTTPTITYKYKNPGTYKVKLIVTDNQGASSSFTATIKVTSATGDNSKFNFEDGTLGGFTTSGTNATGVVVNTTEKAFKGERGLKWTVTSEGEGTAELKLDGGTIVVPGTTMTFRIWIPSGAPIAAIQPYIMPHTPDWSEVLWNSTWKGYTMVKTDDWNEITLTLPEDVDPTWPQQMGIQVQTIDEGEFTIYVDAIDWLEHHHHHH | soluble
NKNFSWNVNFNLTHFKNKVLELSPELNGQLIDGARIYREDESMYQLYLPKYVGVDSETGESLWALVTPDENGNTVTKSYSVASENRFASGDILPKVYGGFGTSVTAYGFDLSVSFAYQLGGRILDYTYQGLMDVAATGSALHKDMLKAWTPENKNTDVPRMNINDQYTNRLTDRFLTSSDYLSLQNITLGYTLPKSLTRKMQIDGVRVFFVADNVALLTARKGLDPRQGYVAADNVYSPIRTISGGISLNF | not soluble
MGKGGNYVTVAASEVDELRRKNGEMEKAVEEMKKEMLQLWRRTQVAEEAEERLCSQLAELEAESLDQARDYHSRIIFLMNELSRLSSDSASASP | soluble
LLQHAYNPINWYSWNDEAFKKAKEEDKPIFLSVGYSTCHWCHVMEKESFEDEEVAEIMNRNFVAIKVDKEERPDVDSVYMTVCQAMTGSGGWPMTIIMTPDKKPFFAGTYFPKYSRYNRPGVIDLLENVSEKWNTSRDILIKSGDEIIEAL | not soluble
MGSDKIHHHHHHMRYSPEALIAFVETVSCGSFSAAARRLRKSQSTISIAIAHLEADLGFSLFDRSSRQPVLTEEGKRVLSYVQAILSASDRLDEVALTLSGETEARLTFVLSDTLHPDSLEELMAQFDRQFPHTEFECLIGENDDVIDLLQKGRAQIGLIEARDDYPTDIGAARLPVQSWMGVYVATTHPLASQTNLQWEQLHTWRELRLNTYLDSNANITRGPAWSAPNYLLLLSMAVQGFGWCVLPCALVEEFAAEKPLAQLDVPGWPRAIAIDLLWNKKTPPGTAGNWLRYHLQQK | not soluble
MGSDKIHHHHHHMSQPLLSLPIDVLNIISKAMPTTLFQQLATQCTEVSFLNTGISNVNIKLSCEDGDKVLRVNQPHSNWCDRSLEVECWQAAIVANIAPVLIWVSDDKQVYLSEFIHQPETDWSIFASMRSHLSLGQSTNQSISAVDAVPLLSALFCKLSTLPVPNKSITVTEQWQQYAYQLDSLTESQIDPQWHDAWQQLLRLNGLVRHWLSQLEACVLLPTFCHRDLTPHNLLLSGRAPHQLFCIDYEYAVASHPLFDLASVVASHKLSTIQVNQLIDNVIMQYCQAASLTDVAAAKAALPAAINCFWLFSAMWALLMAAKEPQKVTQYLQYFTYYLTLITC | not soluble
MKTISNEQLTIQVSPHGAELCSIFANGKEYLWQADPAFWKRHSPVLFPIVGSVWENQYRNEGIAYTLSQHGFARDMEFTLVSEKEDEVRYHLVSNEETLRKFPFPFCLEIGYRIQGKQIEVIWEVKNTGEKEMYFQIGAHPAFYWPDFNADTQNRGFFGFDKEEGLKYILISEKGCADPSTEYSLELTDGLLPLDTHTFDKDALIIENEQIHKVTLYTKEKKAYLSLHFHAPVVGLWSPPAKNAPFVCIEPWYGRCDRAHYTGEYKDKDWMQHLQPEETFRGGYTIEIDELEHHHHHH | not soluble
MLILDYTKLKVTFMTMHHPNLQQHDRPQAISRSYLDIRHVVKQFGSFTALKEISLSIEKGEFVCFLGPSGCGKTTLLRAIAGLDLPTSGTIHQNQQAITFLPPEQRDFGIVFQSYALFPNLTVEENIAIGLRNQGMSVRDALEKVEQWLEMIGLATSAQKYPSQLSGGQQQRVALARALALSPGLLLLDEPLSALDAKVRTHLREEICQLQRKLGITTIMVTHDQEEALTMADRIVVMNHGVIEQVGTPQEIYQKPASRFVAEFVGTMNFIPVSMASSQQLRIAESLIALPKIENYTPCQGEQFDLAVRPENLELVTRYNEAIPVVIRHLEFLGAFYRVECVFQGERLAPPVYVDLPITQVQTMNLKAGDVRYLALRAGQLRAYRRKVMSTTPAATASCAYAA | not soluble
